This test deals with Soluble SorCS2 (extracellular domain of SorCS2) (UniProt Q96PQ0 51-1078). Briefly: SPR. For orientation: SPR reads the build-up and loss of mass on a sensor chip optically.
Soluble SorCS2 (extracellular domain of SorCS2), sequence (Q96PQ0 51-1078): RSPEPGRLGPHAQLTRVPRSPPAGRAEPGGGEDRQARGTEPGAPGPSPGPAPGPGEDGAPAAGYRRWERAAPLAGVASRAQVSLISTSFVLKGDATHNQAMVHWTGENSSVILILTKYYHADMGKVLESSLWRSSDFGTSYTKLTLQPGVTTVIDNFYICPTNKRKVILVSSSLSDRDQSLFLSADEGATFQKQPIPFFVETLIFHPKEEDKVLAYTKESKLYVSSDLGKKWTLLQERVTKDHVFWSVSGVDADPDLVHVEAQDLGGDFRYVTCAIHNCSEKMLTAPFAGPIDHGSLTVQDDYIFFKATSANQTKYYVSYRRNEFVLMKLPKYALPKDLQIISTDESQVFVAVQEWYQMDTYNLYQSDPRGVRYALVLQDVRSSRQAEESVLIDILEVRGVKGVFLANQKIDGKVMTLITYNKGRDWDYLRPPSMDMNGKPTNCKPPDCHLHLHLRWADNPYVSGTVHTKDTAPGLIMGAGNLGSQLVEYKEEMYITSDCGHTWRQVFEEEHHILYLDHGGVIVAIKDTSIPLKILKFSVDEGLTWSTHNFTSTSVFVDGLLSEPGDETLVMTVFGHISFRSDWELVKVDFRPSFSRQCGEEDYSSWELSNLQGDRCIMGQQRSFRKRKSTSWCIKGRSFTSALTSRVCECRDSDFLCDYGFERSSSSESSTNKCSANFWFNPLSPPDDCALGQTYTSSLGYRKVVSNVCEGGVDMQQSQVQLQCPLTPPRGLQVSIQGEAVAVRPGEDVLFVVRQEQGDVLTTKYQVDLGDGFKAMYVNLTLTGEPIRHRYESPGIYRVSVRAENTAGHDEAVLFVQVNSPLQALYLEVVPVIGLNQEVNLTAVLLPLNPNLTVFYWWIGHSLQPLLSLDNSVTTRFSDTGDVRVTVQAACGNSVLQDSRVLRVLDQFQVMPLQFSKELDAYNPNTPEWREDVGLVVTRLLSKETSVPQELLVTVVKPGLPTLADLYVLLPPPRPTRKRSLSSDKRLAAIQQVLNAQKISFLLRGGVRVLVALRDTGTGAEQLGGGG

B1: human progranulin (hPGRN) used in SPR (ligand, UniProt P28799 18-593, looked up)
chain: TRCPDGQFCPVACCLDPGGASYSCCRPLLDKWPTTLSRHLGGPCQVDAHCSAGHSCIFTVSGTSSCCPFPEAVACGDGHHCCPRGFHCSADGRSCFQRSGNNSVGAIQCPDSQFECPDFSTCCVMVDGSWGCCPMPQASCCEDRVHCCPHGAFCDLVHTRCITPTGTHPLAKKLPAQRTNRAVALSSSVMCPDARSRCPDGSTCCELPSGKYGCCPMPNATCCSDHLHCCPQDTVCDLIQSKCLSKENATTDLLTKLPAHTVGDVKCDMEVSCPDGYTCCRLQSGAWGCCPFTQAVCCEDHIHCCPAGFTCDTQKGTCEQGPHQVPWMEKAPAHLSLPDPQALKRDVPCDNVSSCPSSDTCCQLTSGEWGCCPIPEAVCCSDHQHCCPQGYTCVAEGQCQRGSEIVAGLEKMPARRASLSHPRDIGCDQHTSCPVGQTCCPSLGGSWACCQLPHAVCCEDRQHCCPAGYTCNVKARSCEKEVVSAQPATFLARSPHVGVKDVECGEGHFCHDNQTCCRDNRQGWACCPYRQGVCCADRRHCCPAGFRCAARGTKCLRREAPRWDAPLRDPALRQLL
Consider B1, for which the equilibrium dissociation constant (Kd) was roughly 3 nM.

Usually Kd stands for the concentration at which binding is half-saturated. Read a high Kd as a looser complex.
